According to the supplement of paper PMC6755084:

B1: F1*; the commonest letter at each place (parent)
chain: GAGACCGCAACTGAAAAGTTGTTATCACTTGTCGTAAGACACTTTGGATGGGTTGAAGTTCTGCACGTAGAAGCAAAAGGC

Variants of: B1
Assay: fraction ligated after 30 min (ligated reads / total reads); higher = more ligase activity
Settings: with F1*sub RNA substrate (template-directed ligation), 42 °C
Procedure, shortened: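 Oligo-pool templates underwent PCR amplification, T7 transcription and gel purification to yield ribozyme variants. Gel-separated ligated and unligated bands were converted to complementary DNA with barcoded primers and sequenced on a MiSeq, keeping core bases of quality ≥20. The ratio of ligated reads to total reads gave the fraction ligated for every variant.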

Variant | fraction ligated
G34A A57T | 0.822
G34A C40A | 0.817
G34A C40G | 0.833
G34A C40T | 0.81
G34A C42A | 0.839
G34A C42G | 0.85
G34A C42T | 0.865
G34A G38A | 0.861
G34A G38C | 0.825
G34A G38T | 0.838
G34A G46A | 0.807
G34A G46C | 0.798
G34A G46T | 0.778
G34A G47A | 0.805
G34A G47C | 0.239
G34A G47T | 0.373
G34A G50A | 0.625
G34A G50C | 0.43
G34A G50T | 0.778
G34A G55A | 0.84
G34A G55C | 0.801
G34A G55T | 0.811
G34A T35A | 0.848
G34A T35C | 0.835

Variant | fraction ligated
G34A T35G | 0.855
G34A T43A | 0.836
G34A T43C | 0.779
G34A T43G | 0.799
G34A T44A | 0.842
G34A T44C | 0.825
G34A T44G | 0.844
G34A T45A | 0.797
G34A T45C | 0.795
G34A T45G | 0.368
G34A T49A | 0.786
G34A T49C | 0.737
G34A T49G | 0.819
G34C | 0.832
G34C A36C | 0.834
G34C A36G | 0.824
G34C A36T | 0.832
G34C A37C | 0.806
G34C A37G | 0.845
G34C A37T | 0.839
G34C A39C | 0.806
G34C A39G | 0.807
G34C A39T | 0.781
G34C A41C | 0.808

Variant | fraction ligated
G34C A41G | 0.758
G34C A41T | 0.778
G34C A48C | 0.756
G34C A48G | 0.753
G34C A48T | 0.781
G34C A56C | 0.779
G34C A56G | 0.794
G34C A56T | 0.812
G34C A57C | 0.817
G34C A57G | 0.854
G34C A57T | 0.769
G34C C40A | 0.805
G34C C40G | 0.818
G34C C40T | 0.803
G34C C42A | 0.852
G34C C42G | 0.84
G34C C42T | 0.849
G34C G38A | 0.813
G34C G38C | 0.818
G34C G38T | 0.811
G34C G46A | 0.789
G34C G46C | 0.757
G34C G46T | 0.762
G34C G47A | 0.774

Variant | fraction ligated
G34C G47C | 0.365
G34C G47T | 0.352
G34C G50A | 0.17
G34C G50C | 0.329
G34C G50T | 0.733
G34C G55A | 0.838
G34C G55C | 0.768
G34C G55T | 0.809
G34C T35A | 0.815
G34C T35C | 0.835
G34C T35G | 0.829
G34C T43A | 0.843
G34C T43C | 0.78
G34C T43G | 0.809
G34C T44A | 0.816
G34C T44C | 0.803
G34C T44G | 0.84
G34C T45A | 0.0783
G34C T45C | 0.733
G34C T45G | 0.0478
G34C T49A | 0.776
G34C T49C | 0.0345
G34C T49G | 0.75
G34T | 0.848

Variant | fraction ligated
G34T A36C | 0.843
G34T A36G | 0.834
G34T A36T | 0.827
G34T A37C | 0.844
G34T A37G | 0.829
G34T A37T | 0.843
G34T A39C | 0.779
G34T A39G | 0.808
G34T A39T | 0.804
G34T A41C | 0.755
G34T A41G | 0.768
G34T A41T | 0.763
G34T A48C | 0.756
G34T A48G | 0.77
G34T A48T | 0.801
G34T A56C | 0.805
G34T A56G | 0.785
G34T A56T | 0.793
G34T A57C | 0.806
G34T A57G | 0.84
G34T A57T | 0.81
G34T C40A | 0.802
G34T C40G | 0.811
G34T C40T | 0.809

Variant | fraction ligated
G34T C42A | 0.849
G34T C42G | 0.841
G34T C42T | 0.848
G34T G38A | 0.836
G34T G38C | 0.83
G34T G38T | 0.82
G34T G46A | 0.823
G34T G46C | 0.778
G34T G46T | 0.763
G34T G47A | 0.764
G34T G47C | 0.342
G34T G47T | 0.363
G34T G50A | 0.606
G34T G50C | 0.396
G34T G50T | 0.767
G34T G55A | 0.835
G34T G55C | 0.796
G34T G55T | 0.81
G34T T35A | 0.854
G34T T35C | 0.81
G34T T35G | 0.847
G34T T43A | 0.827
G34T T43C | 0.782
G34T T43G | 0.793

Variant | fraction ligated
G34T T44A | 0.792
G34T T44C | 0.811
G34T T44G | 0.842
G34T T45A | 0.794
G34T T45C | 0.757
G34T T45G | 0.385
G34T T49A | 0.756
G34T T49C | 0.633
G34T T49G | 0.772
T35A | 0.836
T35A A36C | 0.865
T35A A36G | 0.857
T35A A36T | 0.85
T35A A37C | 0.872
T35A A37G | 0.844
T35A A37T | 0.86
T35A A39C | 0.828
T35A A39G | 0.851
T35A A39T | 0.838
T35A A41C | 0.792
T35A A41G | 0.811
T35A A41T | 0.831
T35A A48C | 0.752
